# Test results: patent publication US20090208936, “IDENTIFICATION OF MOLECULAR INTERACTIONS AND THERAPEUTIC USES THEREOF” (Univeristy of Florida Research Foundations Inc., published 2009)
# Key:
# antithrombin III (AT3) = antithrombin III (AT3) (Homo sapiens, UniProt P01008 P01008:33-464); assay: FRET control without thrombin, no fluorescence change; details: tags: Haematologic Technologies Inc; label: 5'-6-FAM, 3'-Dabcyl; G4
# [1] = molecular target: T1, sulfated hirudin fragment 54-65 (HirF) (UniProt P01050 P01050:54-65, not fully specified); assay: as above; details: tags: Sigma-Aldrich; peptide with sulfated Tyr; label: 5'-6-FAM, 3'-Dabcyl; G4
# T1 chain: GDFEEIPEEYLQ
# alpha-thrombin [2] = molecular target: T2, alpha-thrombin (Homo sapiens, UniProt P00734;P00734 P00734:328-363,P00734:364-622); assay: FRET quenching slightly larger than FQ-15Ap; Exosite II; not displaced by HirF or AHT
# alpha-thrombin [3] = molecular target: T2, alpha-thrombin; assay: FP; anisotropy bait complex; slowly displaced by AT3
# alpha-thrombin [4] = molecular target: T2, alpha-thrombin; assay: FP; anisotropy increased more than 30% at 1:1; 20 mM Tris-HCl pH 7.6, 50 mM NaCl, 5% glycerol
# Sequence of antithrombin III (AT3) (P01008 33-464, one chain of several): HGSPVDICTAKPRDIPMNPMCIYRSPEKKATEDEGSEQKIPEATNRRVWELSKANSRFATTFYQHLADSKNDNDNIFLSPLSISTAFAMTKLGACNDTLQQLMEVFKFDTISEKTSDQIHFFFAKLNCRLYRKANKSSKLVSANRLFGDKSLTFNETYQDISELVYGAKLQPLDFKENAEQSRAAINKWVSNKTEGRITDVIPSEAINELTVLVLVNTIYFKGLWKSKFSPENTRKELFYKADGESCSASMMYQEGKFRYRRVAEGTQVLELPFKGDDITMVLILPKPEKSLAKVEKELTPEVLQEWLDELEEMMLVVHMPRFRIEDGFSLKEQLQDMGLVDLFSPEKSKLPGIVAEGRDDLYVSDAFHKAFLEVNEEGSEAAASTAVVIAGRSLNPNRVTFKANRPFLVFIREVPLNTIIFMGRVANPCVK
binder,measurement,setting,value
GGTTGGTGTGGTTGG (ssDNA) [FQ-15Ap],binding result,antithrombin III (AT3),no binding
same,binding result,[1],no binding
ACCCGTGGTAGGGTAGGATGGGGTGGT (ssDNA) [FQ-27Ap],binding result,alpha-thrombin [2],binds
ACCCGTGGTAGGGTAGGATGGGGTGGT (ssDNA) [T-27Ap],binding result,alpha-thrombin [3],binds
GGTTGGTGTGGTTGG (ssDNA) [T-15Ap],binding result,alpha-thrombin [4],binds
